Measurements reported in the PETadex activity labels (doi:10.1021/bi00096a018).
Numbering of substitutions follows the chain as printed.

Substrate: Acetylcholine
Details: pH 7; 22 °C

B1: unnamed (protein)
chain: MRPPWYPLHTPSLAFPLLFLLLSLLGGGARAEGREDPQLLVRVRGGQLRGIRLKAPGGPVSAFLGIPFAEPPVGSRRFMPPEPKRPWSGVLDATTFQNVCYQYVDTLYPGFEGTEMWNPNRELSEDCLYLNVWTPYPRPASPTPVLIWIYGGGFYSGAASLDVYDGRFLAQVEGAVLVSMNYRVGTFGFLALPGSREAPGNVGLLDQRLALQWVQENIAAFGGDPMSVTLFGESAGAASVGMHILSLPSRSLFHRAVLQSGTPNGPWATVSAGEARRRATLLARLVGCPPGGAGGNDTELIACLRTRPAQDLVDHEWHVLPQESIFRFSFVPVVDGDFLSDTPEALINTGDFQDLQVLVGVVKDEGSAFLVYGVPGFSKDNESLISRAQFLAGVRIGVPQASDLAAEAVVLHYTDWLHPEDPTHLRDAMSAVVGDHNVVCPVAQLAGRLAAQGARVYAYIFEHRASTLTWPLWMGVPHGYEIEFIFGLPLDPSLNYTTEERIFAQRLMKYWTNFARTGDPNDPRDSKSPQWPPYTTAAQQYVSLNLKPLEVRRGLRAQTCAFWNRFLPKLLSATDTLDEAERQWKAEFHRWSSYMVHWKNQFDHYSKQERCSDL
Which results are given for B1?
Km: 110 µM; kcat: 867 s⁻¹

B2: unnamed (protein)
chain: B1 chain with F326Y, A368Y
For B2, which Km is on record?
Its Km is 17 µM.

And the kcat?
The kcat was 102 s⁻¹.

B3: unnamed (protein)
chain: B1 chain with A368Y
Which Km does the source give for B3 here?
The Km was 451000 µM.

What about the kcat of the same protein?
The kcat was 667 s⁻¹.

And the kcat/Km?
Its kcat/Km is 1480 M⁻¹ s⁻¹.

B4: unnamed (protein)
chain: B1 chain with Y103N, D105N, Y155Q, W317A, A368Y
B4 was tested. Which Km did it give?
The Km was 2100 µM.

What about the kcat of the same protein?
The kcat was 2500 s⁻¹.

B5: unnamed (protein)
chain: B1 chain with Y103N, Y155Q, W317A, A368Y
For B5, which Km is on record?
Its Km is 230 µM.

What about the kcat of the same protein?
Its kcat is 2500 s⁻¹.

B6: unnamed (protein)
chain: B1 chain with D105N, A368Y
For B6, which Km is on record?
Its Km is 1300 µM.

And the kcat?
The kcat was 1400 s⁻¹.

B7: unnamed (protein)
chain: B1 chain with R327S, A368Y
B7 was tested. Which Km did it give?
The Km was 50 µM.

And the kcat?
Its kcat is 1530 s⁻¹.

B8: unnamed (protein)
chain: B1 chain with F326L, F328I, A368Y
For B8, which Km is on record?
Its Km is 200 µM.

What about the kcat of the same protein?
Its kcat is 200 s⁻¹.

B9: unnamed (protein)
chain: B1 chain with F328I, A368Y
B9 was tested. Which Km did it give?
Its Km is 357000 µM.

What about the kcat of the same protein?
Its kcat is 250 s⁻¹.

And the kcat/Km?
The kcat/Km was 700 M⁻¹ s⁻¹.
